Target: the molecule itself
Assay: AUC; sedimentation velocity, 10-80 uM protein, 50 mM Tris-HCl pH 8.0, 100 mM NaCl, 1 mM Na2-EDTA, 20 C, 40,000 rpm, 280 nm; self-association (dimer)

B1: C.Csp231I controller protein (natural protein, Citrobacter sp. RFL231, UniProt Q32WH4 1-98, looked up)
chain: MLIRRLKDARLRAGISQEKLGVLAGIDEASASARMNQYEKGKHAPDFEMANRLAKVLKIPVSYLYTPEDDLAQIILTWNELNEQERKRINFYIRKKAK
notes: C.Csp231I controller protein of the Csp231I restriction-modification system, Citrobacter sp; RFL231; native untagged protein, 98 amino acids (Mr 11,360), expressed from the csp231IC gene; Homodimer in solution and in both crystal forms; also called C-protein; source: E. coli BL21(DE3) Gold, pET-11a, purified (HiTrap heparin, HiTrap SP, Sephacryl S-100 HR)
  stoichiometry N: 2
